T1: WT-ZnT2-YC (human, UniProt Q9BRI3 1-372, Carries a C-terminal YC reporter (non-fluorescent C-terminal half of YFP), not included in the letters.)
T1 construct: BiFC construct expressed in living MCF-7 cells; not shown: YC, the C-terminal half of YFP, and any linker to it
T1 sequence: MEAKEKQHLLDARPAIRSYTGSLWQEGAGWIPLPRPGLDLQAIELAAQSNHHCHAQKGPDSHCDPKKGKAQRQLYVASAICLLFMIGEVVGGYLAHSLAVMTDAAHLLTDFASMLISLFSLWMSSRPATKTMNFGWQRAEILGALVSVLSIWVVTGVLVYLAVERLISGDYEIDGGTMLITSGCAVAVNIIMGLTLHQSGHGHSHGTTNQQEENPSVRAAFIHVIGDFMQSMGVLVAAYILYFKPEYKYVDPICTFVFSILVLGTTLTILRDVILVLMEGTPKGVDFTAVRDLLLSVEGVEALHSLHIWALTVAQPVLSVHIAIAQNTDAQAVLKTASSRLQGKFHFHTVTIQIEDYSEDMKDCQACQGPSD

B1: Δ9AA-ZnT2-YN (other)
chain: MEAKEKQHLLDARPAIRSYTGSLWQEGAGWIPLPRPGLDLQAIELAAQSNHHCHAQKGPDSHCDPKKGKAQRQLYVASAICLLFMIGEVVGGYLAHSLAVMTDAAHLLTDFASMLISLFSLWMSSRPATKTMNFGWQRAEILGALVSVLSIWVVTGVLVYLAVERLISGDYEIDGGTMLITSGCAVAVNIIMGLTLHQSGHGHSHGTTNQQEENPSVRAAFIHVIGDFMQSMGVLVAAYILYFKPEYKYVDPICTFVFSILVLGTTLTILRDVILVLMEAVRDLLLSVEGVEALHSLHIWALTVAQPVLSVHIAIAQNTDAQAVLKTASSRLQGKFHFHTVTIQIEDYSEDMKDCQACQGPSD
modifications: Carries a C-terminal YN reporter (non-fluorescent N-terminal half of YFP), not included in the letters.
notes: Deletion introduced into the ZnT2 BiFC plasmid by site-directed mutagenesis (27 bp, 839_865del); also called Δ9AA-YN; truncated Δ9AA-ZnT2; not shown: YN, the N-terminal half of YFP, and any linker to it
B2: Δ9AA-ZnT2-YC (other)
chain: B1 chain
modifications: Carries a C-terminal YC reporter (non-fluorescent C-terminal half of YFP), not included in the letters.
notes: Deletion introduced into the ZnT2 BiFC plasmid by site-directed mutagenesis (27 bp, 839_865del); also called Δ9AA-YC; truncated Δ9AA-ZnT2; not shown: YC, the C-terminal half of YFP, and any linker to it
B3: WT-ZnT2-YN (other)
chain: T1 sequence
modifications: Carries a C-terminal YN reporter (non-fluorescent N-terminal half of YFP), not included in the letters.
notes: BiFC construct expressed in living MCF-7 cells; not shown: YN, the N-terminal half of YFP, and any linker to it

How the values were obtained:
Δ9AA-ZnT2-YC = biological target: B2; experiment: BiFC in MCF-7 cells, YFP fluorescence by flow cytometry
Method: (§1) The ability of the alternative 3′ splice variant (Δ9AA) ZnT2 to form homodimers was evaluated using the bimolecular fluorescence complementation (BiFC) assay that has been previously applied for the detection of in situ dimerization of ZnT2 and other ZnTs in living cells. High YFP fluorescence intensity indicates a strong interaction between the two tagged proteins, as this enables the refolding of the two non-fluorescent halves of YFP (YN and YC) into a fully fluorescent protein.

WT-ZnT2-YC [1] = biological target: T1, WT-ZnT2-YC; experiment: as above
Method: as §1

WT-ZnT2-YN = biological target: B3; experiment: as above
Method: as §1

β2AR-YC = biological target: T2, β2AR-YC (UniProt P07550 1-413); experiment: as above
T2 construct: whole, on cells; Negative control partner in the BiFC assay; not shown: YC: non-fluorescent C-terminal half of YFP (BiFC tag)
Method: as §1

WT-ZnT2-YC [2] = biological target: T1, WT-ZnT2-YC; experiment: western blot of BiFC transfectants (SDS-metastable dimers), anti-ZnT2 antibody
Method: MCF-7 cells were transiently transfected with the designated plasmids (3 μg in single construct transfection and 1.5 μg DNA of each construct in co-transfections). Membrane proteins were isolated on ice using an extraction buffer as previously described (Golan Y., et al., Journal of Biological Chemistry, 2015, 290(14):9050-63). Briefly, proteins (30 μg) were resolved by electrophoresis on 10% polyacrylamide gels, electroblotted onto cellulose nitrate membranes, blocked with Tris-buffered saline (TBS)-milk and reacted with mouse anti-ZnT2 monoclonal antibody (at 1:2,000 dilution, 1 hr at room temperature; generously provided by Prof T Kambe, Kyoto University, Kyoto, Japan). […] Similarly, actual protein loading onto the SDS-PAGE gels was confirmed by blot reprobing with a rabbit polyclonal antibody against the a subunit of Na⁺/K⁺ ATPase (KETTY at 1:3,000 dilution; kindly provided by Prof. S. J. D. Karlish, Weizmann Institute of Science, Rehovot, Israel) and detected with horseradish peroxidase-conjugated goat anti-rabbit IgG (1:15,000 dilution; Jackson Immunoresearch Labs, West Grove, Pa.).
The dimerization results were further confirmed by western blot analysis. […] However, in contrast to the ZnT2 protein which was predominantly present in the homodimer form (FIG. 4C, uppermost band), upon co-transfection of Δ9AA-YN+Δ9AA-YC no homodimers were detected (FIG. 4C). […]

Binder: B1
- binding result (Δ9AA-ZnT2-YC): no binding
- binding result (WT-ZnT2-YC [1]): no binding

Binder: B2
- binding result (WT-ZnT2-YN): no binding

Binder: B3
- binding result (β2AR-YC): no binding
- binding result (WT-ZnT2-YC [2]): binds
